± gives the standard deviation of the averaged measurements.
Each sequence was assayed on ATP (assay: switch fluorescence ratio, 500 uM ATP over buffer (Cy3 cluster intensity, sum of 5 cycles each) (fold (ratio)); higher = stronger signal-on switching upon ATP binding; sequences stand for … in TCGTCGGCAGCGTCAGATGTGTATAAGAGACAGTTTTTTTTTTTTTTTTTTTTTTTTT…TC). Conditions: aptamer strand: ATP DNA aptamer (quencher-CACCTGGGGGAGTATTGCGGAGGAAGG + anchor), 100 nM annealed; ATP concentration: 500 uM.
In short: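 Values give the fluorescence ratio for each switch-domain sequence, averaged from per-cluster ratios of summed target-cycle to summed buffer-cycle Cy3 intensity. The Cy3-labelled switching-strand clusters sat on a modified Illumina MiSeq flow-cell, were annealed to 100 nM quencher-labelled ATP aptamer, and were imaged in selection buffer, then after 15 min with 500 uM ATP at 22 °C. Five cycles ran with NaOH stripping and re-annealing between them, and clusters outside 100-1000 RFU were excluded.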
CGCCAGAAGG was tested, and the switch fluorescence ratio was 0.9883 ± 0.0036. For CGCCAGCAGA, the switch fluorescence ratio was 1.33 ± 0.14. CGCCAGCATA gave a switch fluorescence ratio of 2.82 ± 0.31. CGCCATATTT was tested, and the switch fluorescence ratio was 1.03 ± 0.016. For CGCCATGGAA, the switch fluorescence ratio was 1 ± 0.017. With CGCCCCGTCA the switch fluorescence ratio was 0.954 ± 0.036. CGCCCGCTGT gave a switch fluorescence ratio of 1.72 ± 0.65. CGCCCGGGGG gave a switch fluorescence ratio of 1.32 ± 0.45. CGCCGCACTT gave a switch fluorescence ratio of 3.93 ± 1.1. CGCCGCTTCA was tested, and the switch fluorescence ratio was 1.05 ± 0.067. Sequence CGCCGGGTTT has a switch fluorescence ratio of 1.02 ± 0.018. CGCCTAGAGG showed a switch fluorescence ratio of 1.02 ± 0.032. With CGCCTCATTT the switch fluorescence ratio was 1 ± 0.03. CGCCTGGCGT gave a switch fluorescence ratio of 0.9568 ± 0.0077. Work on CGCCTTTGTG yielded a switch fluorescence ratio of 1 ± 0.019. Work on CGCGAAGTTG yielded a switch fluorescence ratio of 0.999 ± 0.057. CGCGCAGGGG showed a switch fluorescence ratio of 1.69 ± 0.076. For CGCGCATGGT, the switch fluorescence ratio was 1.14 ± 0.033. In the case of CGCGCGGATT, the switch fluorescence ratio is reported as 1.04 ± 0.034. Work on CGCGCGGTGT yielded a switch fluorescence ratio of 1.17 ± 0.2. CGCGGGCCGT was tested, and the switch fluorescence ratio was 0.981 ± 0.024. CGCGGGGATA was tested, and the switch fluorescence ratio was 1.18 ± 0.23. CGCGGGTTGC gave a switch fluorescence ratio of 1.06 ± 0.042. CGCGGTATGG showed a switch fluorescence ratio of 1.04 ± 0.022. For CGCGGTGGGA, the switch fluorescence ratio was 1.02 ± 0.026. CGCGGTGGGC gave a switch fluorescence ratio of 1.005 ± 0.0026. Sequence CGCGGTTGC has a switch fluorescence ratio of 1.24 ± 0.038. With CGCGTAGACA the switch fluorescence ratio was 0.992 ± 0.055. In the case of CGCGTCGGGA, the switch fluorescence ratio is reported as 0.976 ± 0.044. For CGCGTGGGCC, the switch fluorescence ratio was 1.03 ± 0.026. Sequence CGCGTTAGA has a switch fluorescence ratio of 1.04 ± 0.017. For CGCGTTGAAA, the switch fluorescence ratio was 1.038 ± 0.0035. For CGCGTTGGGG, the switch fluorescence ratio was 1.03 ± 0.044. CGCTAAAGCC was tested, and the switch fluorescence ratio was 1.156 ± 0.003. With CGCTACTGTT the switch fluorescence ratio was 1.079 ± 0.0014. For CGCTACTTGA, the switch fluorescence ratio was 1.027 ± 0.0082. Sequence CGCTATGTTT has a switch fluorescence ratio of 1.02 ± 0.019. Sequence CGCTATTTCT has a switch fluorescence ratio of 1.1 ± 0.051. With CGCTCAAAGG the switch fluorescence ratio was 1.03 ± 0.015. CGCTCAGTTG was tested, and the switch fluorescence ratio was 1.13 ± 0.0039. For CGCTCCGATG, the switch fluorescence ratio was 1.26 ± 0.025. Work on CGCTCCGGAG yielded a switch fluorescence ratio of 1.18 ± 0.14. Sequence CGCTCCGGGG has a switch fluorescence ratio of 1.06 ± 0.07. CGCTCTTATT showed a switch fluorescence ratio of 0.978 ± 0.016. In the case of CGCTCTTTTG, the switch fluorescence ratio is reported as 1.02 ± 0.061. With CGCTGCTCGC the switch fluorescence ratio was 1.3253 ± 0.00064. With CGCTGGCATG the switch fluorescence ratio was 1 ± 0.032. CGCTGGGTGG gave a switch fluorescence ratio of 1.02 ± 0.037. CGCTGTCGGA showed a switch fluorescence ratio of 1.014 ± 0.0078. CGCTGTGGCG showed a switch fluorescence ratio of 0.983 ± 0.036. Sequence CGCTGTGGGC has a switch fluorescence ratio of 0.988 ± 0.044. CGCTTAAGTT gave a switch fluorescence ratio of 1.004 ± 0.0013. CGCTTAATTA showed a switch fluorescence ratio of 1.01 ± 0.041. In the case of CGCTTAGCCA, the switch fluorescence ratio is reported as 1.01 ± 0.021. CGCTTAGGCA was tested, and the switch fluorescence ratio was 1.02 ± 0.053. CGCTTCTCTT gave a switch fluorescence ratio of 1.03 ± 0.011. In the case of CGCTTGGGGT, the switch fluorescence ratio is reported as 0.9626 ± 0.0092. Sequence CGCTTGGTCG has a switch fluorescence ratio of 1.03 ± 0.016. For CGCTTGTATT, the switch fluorescence ratio was 1.02 ± 0.013. In the case of CGCTTTGGAA, the switch fluorescence ratio is reported as 0.964 ± 0.064. With CGCTTTGGTT the switch fluorescence ratio was 1.04 ± 0.012. Sequence CGCTTTTCTT has a switch fluorescence ratio of 1.01 ± 0.0035. Sequence CGCTTTTGCT has a switch fluorescence ratio of 0.969 ± 0.029. CGGAAAGCG was tested, and the switch fluorescence ratio was 1 ± 0.026. CGGAAATGGG was tested, and the switch fluorescence ratio was 1.023 ± 0.0022. For CGGAACGAGA, the switch fluorescence ratio was 0.983 ± 0.025. Work on CGGAAGAAAT yielded a switch fluorescence ratio of 1.02 ± 0.017. For CGGAATGCAG, the switch fluorescence ratio was 1.076 ± 0.0032. In the case of CGGAATTTTT, the switch fluorescence ratio is reported as 0.971 ± 0.016. Work on CGGACATTCA yielded a switch fluorescence ratio of 1.041 ± 0.0082. Work on CGGACCGGGA yielded a switch fluorescence ratio of 1.06 ± 0.012. For CGGACGACGG, the switch fluorescence ratio was 1.01 ± 0.027. In the case of CGGACGGGTG, the switch fluorescence ratio is reported as 1.02 ± 0.018. Sequence CGGACGTTTT has a switch fluorescence ratio of 1.17 ± 0.13. Sequence CGGACTAAGA has a switch fluorescence ratio of 1.04 ± 0.012. CGGACTAGTT showed a switch fluorescence ratio of 0.994 ± 0.022. For CGGACTCCCA, the switch fluorescence ratio was 1.753 ± 0.014. With CGGACTGATT the switch fluorescence ratio was 1 ± 0.064. In the case of CGGAGAGATG, the switch fluorescence ratio is reported as 1.042 ± 0.0034. Work on CGGAGATACG yielded a switch fluorescence ratio of 1.02 ± 0.029. For CGGAGCTCTG, the switch fluorescence ratio was 1.06 ± 0.015. With CGGAGGAACG the switch fluorescence ratio was 1.01 ± 0.038. Work on CGGAGGACAA yielded a switch fluorescence ratio of 0.976 ± 0.012. CGGAGGACCA showed a switch fluorescence ratio of 0.978 ± 0.023. CGGAGGACGG gave a switch fluorescence ratio of 1.03 ± 0.032. For CGGAGGGAAA, the switch fluorescence ratio was 0.963 ± 0.033. CGGAGGGATC gave a switch fluorescence ratio of 1.12 ± 0.037. In the case of CGGAGGGGGT, the switch fluorescence ratio is reported as 1.016 ± 0.0052. In the case of CGGAGGTAGG, the switch fluorescence ratio is reported as 1.01 ± 0.043. Work on CGGAGGTATA yielded a switch fluorescence ratio of 1.14 ± 0.017. With CGGAGGTTTC the switch fluorescence ratio was 1.02 ± 0.03. In the case of CGGAGTACAG, the switch fluorescence ratio is reported as 1.09 ± 0.11. Work on CGGAGTAGGG yielded a switch fluorescence ratio of 1.058 ± 0.0023. With CGGAGTTAGC the switch fluorescence ratio was 1.13 ± 0.028. Work on CGGATAGGTT yielded a switch fluorescence ratio of 1.01 ± 0.017. CGGATATATA showed a switch fluorescence ratio of 1.08 ± 0.049. With CGGATCAGAA the switch fluorescence ratio was 0.9956 ± 0.001. Work on CGGATCCCGA yielded a switch fluorescence ratio of 0.995 ± 0.018. Work on CGGATCGGGG yielded a switch fluorescence ratio of 1.17 ± 0.15. For CGGATCGGGT, the switch fluorescence ratio was 1.004 ± 0.0015. With CGGATCTGGT the switch fluorescence ratio was 0.968 ± 0.024. In the case of CGGATCTTTA, the switch fluorescence ratio is reported as 1.01 ± 0.037. In the case of CGGATGAATG, the switch fluorescence ratio is reported as 0.999 ± 0.029. With CGGATGCATG the switch fluorescence ratio was 1.02 ± 0.046. CGGATGGTGT showed a switch fluorescence ratio of 0.97 ± 0.029. CGGATTAATT was tested, and the switch fluorescence ratio was 0.9862 ± 0.0024. In the case of CGGATTCGGA, the switch fluorescence ratio is reported as 1.012 ± 0.01. CGGATTGAAG gave a switch fluorescence ratio of 1.007 ± 0.0092. CGGATTTTAT showed a switch fluorescence ratio of 1.02 ± 0.035. In the case of CGGCAAGTAT, the switch fluorescence ratio is reported as 1.063 ± 0.0089. Work on CGGCAGCGAG yielded a switch fluorescence ratio of 1.078 ± 0.0015. In the case of CGGCAGGCAC, the switch fluorescence ratio is reported as 1.21 ± 0.037. CGGCAGTTCG was tested, and the switch fluorescence ratio was 0.979 ± 0.014. For CGGCATATAG, the switch fluorescence ratio was 1.99 ± 0.2. CGGCATTCAA gave a switch fluorescence ratio of 0.9989 ± 0.0057. For CGGCCATTCG, the switch fluorescence ratio was 0.982 ± 0.021. Work on CGGCCGAACT yielded a switch fluorescence ratio of 1.033 ± 0.0064. Work on CGGCCGAGGT yielded a switch fluorescence ratio of 1.02 ± 0.02. In the case of CGGCCGGACT, the switch fluorescence ratio is reported as 1.01 ± 0.047. For CGGCCGGGGT, the switch fluorescence ratio was 1.035 ± 0.0058. Work on CGGCCGTTCG yielded a switch fluorescence ratio of 1.1 ± 0.14. In the case of CGGCCTACAG, the switch fluorescence ratio is reported as 1.05 ± 0.028. For CGGCCTCTGC, the switch fluorescence ratio was 1.15 ± 0.091. Sequence CGGCCTGCG has a switch fluorescence ratio of 1.02 ± 0.1. CGGCCTTGGT was tested, and the switch fluorescence ratio was 1.01 ± 0.044. CGGCGCTTCT showed a switch fluorescence ratio of 1.1 ± 0.028. Work on CGGCGGCGGG yielded a switch fluorescence ratio of 1.03 ± 0.015. In the case of CGGCGGGCAA, the switch fluorescence ratio is reported as 1.81 ± 0.69. Sequence CGGCGGGGAA has a switch fluorescence ratio of 0.9757 ± 0.00091. CGGCTGACGA showed a switch fluorescence ratio of 1.03 ± 0.041. CGGCTGGCTT was tested, and the switch fluorescence ratio was 1 ± 0.033. In the case of CGGCTGTGTG, the switch fluorescence ratio is reported as 0.974 ± 0.02. CGGGAAATTG gave a switch fluorescence ratio of 0.9893 ± 0.0035. CGGGAACATT gave a switch fluorescence ratio of 1.01 ± 0.017. CGGGAAGGAG showed a switch fluorescence ratio of 0.9685 ± 0.0053. With CGGGACGCGA the switch fluorescence ratio was 1.28 ± 0.043. In the case of CGGGACGGGG, the switch fluorescence ratio is reported as 0.967 ± 0.022. CGGGACTTGT gave a switch fluorescence ratio of 0.952 ± 0.067. Sequence CGGGAGACAT has a switch fluorescence ratio of 1.01 ± 0.014. Work on CGGGAGACGG yielded a switch fluorescence ratio of 1.31 ± 0.26. In the case of CGGGAGGGAA, the switch fluorescence ratio is reported as 1.02 ± 0.023. With CGGGAGGGGA the switch fluorescence ratio was 1 ± 0.025. CGGGAGTGCG showed a switch fluorescence ratio of 1.02 ± 0.024. Sequence CGGGATAGTA has a switch fluorescence ratio of 0.994 ± 0.041. Sequence CGGGATCATT has a switch fluorescence ratio of 0.958 ± 0.017. CGGGATGGCC showed a switch fluorescence ratio of 1 ± 0.018. With CGGGATGTAG the switch fluorescence ratio was 0.987 ± 0.026. CGGGATTGGT gave a switch fluorescence ratio of 1.01 ± 0.13. For CGGGCAAGGG, the switch fluorescence ratio was 1.19 ± 0.029. Sequence CGGGCAATCA has a switch fluorescence ratio of 1.58 ± 0.11. CGGGCACGTG showed a switch fluorescence ratio of 0.946 ± 0.021. In the case of CGGGCAGAGG, the switch fluorescence ratio is reported as 0.993 ± 0.01. Work on CGGGCAGCTG yielded a switch fluorescence ratio of 1.04 ± 0.048.

— the supplement of paper PMC10126150
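Also: ATP exposure 15 min at 22 °C before imaging.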
